Laboratory results as given in the supplement of paper PMC5998384.

Columns and labels:
HeLa Kyoto [1] = experiment: solubility change mitosis vs G1/S (difference of NP-40 vs SDS log2 ratios) (log2 ratio difference); higher = more soluble in mitosis
HeLa Kyoto [2] = experiment: solubility in G1/S (NP-40 vs SDS abundance) (log2 ratio); higher = more soluble; details: cell cycle stage: G1/S
HeLa Kyoto [3] = experiment: melting temperature (median over replicates), in situ; higher = more thermally stable
HeLa Kyoto [4] = experiment: thermal stability score vs G1/S (z-score of summed log2 fold changes over temperatures); higher = more thermally stable than in G1/S
[5] = cell cycle stage: early G1 (4.5 h after nocodazole release)
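Throughout, for melting temperature (median over replicates), in situ: HeLa Kyoto cells synchronized by double thymidine or nocodazole block, proteins quantified by TMT10plex mass spectrometry, three independent biological replicates.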
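Throughout, for solubility change mitosis vs G1/S (difference of NP-40 vs SDS log2 ratios): synchronized HeLa Kyoto cells (double thymidine block for G1/S, nocodazole release for mitosis), protein amounts in NP-40 versus SDS lysates quantified by mass spectrometry, three biological replicates.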
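Throughout, for solubility in G1/S (NP-40 vs SDS abundance): HeLa Kyoto cells arrested at G1/S by double thymidine block, proteins quantified by TMT10plex mass spectrometry in mild NP-40 versus SDS extracts, three biological replicates.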
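Throughout, for thermal stability score vs G1/S (z-score of summed log2 fold changes over temperatures): synchronized HeLa Kyoto cells, proteins quantified by TMT10plex mass spectrometry, three biological replicates, mitosis taken 0.5 h after nocodazole release, G1/S directly after double thymidine block.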

| Sequence | solubility change mitosis (log2) (HeLa Kyoto [1]) | solubility in G1/S (log2) (HeLa Kyoto [2]) | melting temperature (HeLa Kyoto [3]; cell cycle stage: G1/S) | melting temperature (HeLa Kyoto [3]; cell cycle stage: mitosis) | thermal stability score (HeLa Kyoto [4]; [5]) | thermal stability score (HeLa Kyoto [4]; cell cycle stage: mitosis) |
| --- | --- | --- | --- | --- | --- | --- |
| MRSIRSFANDDRHVMVKHSTIYPSPEELEAVQNMVSTVECALKHVSDWLDETNKGTKTEGETEVKKDEAGENYSKDQGGRTLCGVMRIGLVAKGLLIKDDMDLELVLMCKDKPTETLLNTVKDNLPIQIQKLTEEKYQVEQCVNEASIIIRNTKEPTLTLKVILTSPLIRDELEKKDGENVSMKDPPDLLDRQKCLNALASLRHAKWFQARANGLKSCVIVLRILRDLCNRVPTWAPLKGWPLELICEKSIGTCNRPLGAGEALRRVMECLASGILLPGGPGLHDPCERDPTDALSYMTIQQKEDITHSAQHALRLSAFGQIYKVLEMDPLPSSKPFQKYSWSVTDKEGAGSSALKRPFEDGLGDDKDPNKKMKRNLRKILDSKAIDLMNALMRLNQIRPGLQYKLLSQSGPVHAPVFTMSVDVDGTTYEASGPSKKTAKLHVAVKVLQAMGYPTGFDADIECMSSDEKSDNESKNETVSSNSSNNTGNSTTETSSTLEVRTQGPILTASGKNPVMELNEKRRGLKYELISETGGSHDKRFVMEVEVDGQKFRGAGPNKKVAKASAALAALEKLFSGPNAANNKKKKIIPQAKGVVNTAVSAAVQAVRGRGRGTLTRGAFVGATAAPGYIAPGYGTPYGYSTAAPAYGLPKRMVLLPVMKFPTYPVPHYSFF [STRBP] | -0.0522 | -0.314 | 50.5 °C | 52.5 °C | -0.506 | -0.00226 |
| MSISSDEVNFLVYRYLQESGFSHSAFTFGIESHISQSNINGALVPPAALISIIQKGLQYVEAEVSINEDGTLFDGRPIESLSLIDAVMPDVVQTRQQAYRDKLAQQQAAAAAAAAAAASQQGSAKNGENTANGEENGAHTIANNHTDMMEVDGDVEIPPNKAVVLRGHESEVFICAWNPVSDLLASGSGDSTARIWNLSENSTSGSTQLVLRHCIREGGQDVPSNKDVTSLDWNSEGTLLATGSYDGFARIWTKDGNLASTLGQHKGPIFALKWNKKGNFILSAGVDKTTIIWDAHTGEAKQQFPFHSAPALDVDWQSNNTFASCSTDMCIHVCKLGQDRPIKTFQGHTNEVNAIKWDPTGNLLASCSDDMTLKIWSMKQDNCVHDLQAHNKEIYTIKWSPTGPGTNNPNANLMLASASFDSTVRLWDVDRGICIHTLTKHQEPVYSVAFSPDGRYLASGSFDKCVHIWNTQTGALVHSYRGTGGIFEVCWNAAGDKVGASASDGSVCVLDLRK [TBL1XR1] | -0.127 | -0.0567 | 52.2 °C | 53.6 °C | -0.718 | 1.29 |
| MFKKFDEKENVSNCIQLKTSVIKGIKNQLIEQFPGIEPWLNQIMPKKDPVKIVRCHEHIEILTVNGELLFFRQREGPFYPTLRLLHKYPFILPHQQVDKGAIKFVLSGANIMCPGLTSPGAKLYPAAVDTIVAIMAEGKQHALCVGVMKMSAEDIEKVNKGIGIENIHYLNDGLWHMKTYK [MCTS1] | -0.0597 | 0.267 | 54.8 °C | 54.5 °C | -1.29 | -1.6 |
| MASVAVDPQPSVVTRVVNLPLVSSTYDLMSSAYLSTKDQYPYLKSVCEMAENGVKTITSVAMTSALPIIQKLEPQIAVANTYACKGLDRIEERLPILNQPSTQIVANAKGAVTGAKDAVTTTVTGAKDSVASTITGVMDKTKGAVTGSVEKTKSVVSGSINTVLGSRMMQLVSSGVENALTKSELLVEQYLPLTEEELEKEAKKVEGFDLVQKPSYYVRLGSLSTKLHSRAYQQALSRVKEAKQKSQQTISQLHSTVHLIEFARKNVYSANQKIQDAQDKLYLSWVEWKRSIGYDDTDESHCAEHIESRTLAIARNLTQQLQTTCHTLLSNIQGVPQNIQDQAKHMGVMAGDIYSVFRNAASFKEVSDSLLTSSKGQLQKMKESLDDVMDYLVNNTPLNWLVGPFYPQLTESQNAQDQGAEMDKSSQETQRSEHKTH [PLIN2] | 0.0233 | 0.307 | 53.2 °C | 53.3 °C | 0.285 | 0.347 |
| MYALFLLASLLGAALAGPVLGLKECTRGSAVWCQNVKTASDCGAVKHCLQTVWNKPTVKSLPCDICKDVVTAAGDMLKDNATEEEILVYLEKTCDWLPKPNMSASCKEIVDSYLPVILDIIKGEMSRPGEVCSALNLCESLQKHLAELNHQKQLESNKIPELDMTEVVAPFMANIPLLLYPQDGPRSKPQPKDNGDVCQDCIQMVTDIQTAVRTNSTFVQALVEHVKEECDRLGPGMADICKNYISQYSEIAIQMMMHMQPKEICALVGFCDEVKEMPMQTLVPAKVASKNVIPALELVEPIKKHEVPAKSDVYCEVCEFLVKEVTKLIDNNKTEKEILDAFDKMCSKLPKSLSEECQEVVDTYGSSILSILLEEVSPELVCSMLHLCSGTRLPALTVHVTQPKDGGFCEVCKKLVGYLDRNLEKNSTKQEILAALEKGCSFLPDPYQKQCDQFVAEYEPVLIEILVEVMDPSFVCLKIGACPSAHKPLLGTEKCIWGPSYWCQNTETAAQCNAVEHCKRHVWN [PSAP] | 0.32 | 0.0145 | 58.6 °C | 56.3 °C | -1.22 | -0.0458 |
| MSSASGLRRGHPAGGEENMTETDAFYKREMFDPAEKYKMDHRRRGIALIFNHERFFWHLTLPERRGTCADRDNLTRRFSDLGFEVKCFNDLKAEELLLKIHEVSTVSHADADCFVCVFLSHGEGNHIYAYDAKIEIQTLTGLFKGDKCHSLVGKPKIFIIQACRGNQHDVPVIPLDVVDNQTEKLDTNITEVDAASVYTLPAGADFLMCYSVAEGYYSHRETVNGSWYIQDLCEMLGKYGSSLEFTELLTLVNRKVSQRRVDFCKDPSAIGKKQVPCFASMLTKKLHFFPKSN [CASP6] | -0.176 | -0.374 | 54.4 °C | 56.6 °C | -0.607 | -1.03 |
| MAVARVDAALPPGEGSVVNWSGQGLQKLGPNLPCEADIHTLILDKNQIIKLENLEKCKRLIQLSVANNRLVRMMGVAKLTLLRVLNLPHNSIGCVEGLKELVHLEWLNLAGNNLKAMEQINSCTALQHLDLSDNNISQIGDLSKLVSLKTLLLHGNIITSLRMAPAYLPRSLAILSLAENEIRDLNEISFLASLTELEQLSIMNNPCVMATPSIPGFDYRPYIVSWCLNLRVLDGYVISQKESLKAEWLYSQGKGRAYRPGQHIQLVQYLATVCPLTSTLGLQTAEDAKLEKILSKQRFHQRQLMNQSQNEELSPLVPVETRASLIPEHSSPVQDCQISQESEPVIQVNSWVGINSNDDQLFAVKNNFPASVHTTRYSRNDLHLEDIQTDEDKLNCSLLSSESTFMPVASGLSPLSPTVELRLQGINLGLEDDGVADESVKGLESQVLDKEEEQPLWAANENSVQMMRSEINTEVNEKAGLLPCPEPTIISAILKDDNHSLTFFPESTEQKQSDIKKPENTQPENKETISQATSEKLPMILTQRSVALGQDKVALQKLNDAATKLQACWRGFYARNYNPQAKDVRYEIRLRRMQEHIVCLTDEIRRLRKERDEERIKKFVQEEAFRFLWNQVRSLQVWQQTVDQRLSSWHTDVPPISSTLVPSKHPLFTQSQESSCDQNADWFIASDVAPQEKSLPEFPDSGFHSSLTEQVHSLQHSLDFEKSSTEGSESSIMGNSIDTVRYGKESDLGDVSEEHGEWNKESSNNEQDNSLLEQYLTSVQQLEDADERTNFDTETRDSKLHIACFPVQLDTLSDGASVDESHGISPPLQGEISQTQENSKLNAEVQGQQPECDSTFQLLHVGVTV [CEP97] | -0.207 | 0.0763 | 49.6 °C | 49.9 °C | 0.503 | 1.24 |
| METESGNQEKVMEEESTEKKKEVEKKKRSRVKQVLADIAKQVDFWFGDANLHKDRFLREQIEKSRDGYVDISLLVSFNKMKKLTTDGKLIARALRSSAVVELDLEGTRIRRKKPLGERPKDEDERTVYVELLPKNVNHSWIERVFGKCGNVVYISIPHYKSTGDPKGFAFVEFETKEQAAKAIEFLNNPPEEAPRKPGIFPKTVKNKPIPALRVVEEKKKKKKKKGRMKKEDNIQAKEENMDTSNTSISKMKRSRPTSEGSDIESTEPQKQCSKKKKKRDRVEASSLPEVRTGKRKRSSSEDAESLAPRSKVKKIIQKDIIKEASEASKENRDIEISTEEEKDTGDLKDSSLLKTKRKHKKKHKERHKMGEEVIPLRVLSKSEWMDLKKEYLALQKASMASLKKTISQIKSESEMETDSGVPQNTGMKNEKTANREECRTQEKVNATGPQFVSGVIVKIISTEPLPGRKQVRDTLAAISEVLYVDLLEGDTECHARFKTPEDAQAVINAYTEINKKHCWKLEILSGDHEQRYWQKILVDRQAKLNQPREKKRGTEKLITKAEKIRLAKTQQASKHIRFSEYD [LARP7] | 0.194 | -0.53 | 48.8 °C | 50.1 °C | 0.456 | 1.1 |
